From patent US20250270737A1, “Antibodies That Bind GLP1R” (Twist Bioscience Corporation, priority 2019, published 2025) come the findings set out here.

Data set [1] is described as follows: Thermal ramp stability (Tm and Tagg), UNcle platform. The class given is physicochemical. From the text: The GLP1R IgGs were characterized for thermal ramp stability (Tm and Tagg). The UNcle platform was used to characterize the IgGs and the data is seen in Table 21.
In data set [2] the target is GLP1R (Homo sapiens, UniProt P43220). Nature of the data set: Binding assay with flow cytometry on flag-GLP1R-GFP expressing CHO cells (CHO-GLP1R). The note with it: 100 nM IgG. The method, then:
Briefly, flag-GLP1R-GFP expressing CHO cells (CHO-GLP1R) and CHO-parent cells were incubated with 100 nM IgG for 1 hour on ice, washed three times and incubated with Alexa 647 conjugated goat-anti-human antibody (1:200) for 30 minutes on ice, followed by three washes. All incubations and washes were performed in buffer containing PBS and 0.5% BSA. For titrations, IgG was serially diluted 1:3 starting from 100 nM. […] Analyses of binding assays with IgG titrations presented as binding curves plotting IgG concentrations against MFI (mean fluorescence intensity) are seen in FIGS. 15A-15H. Flow cytometry data of binding assays presented as dot plots with 100 nM IgG are seen in FIGS. 16A-16I.
The GLP1R IgGs were then assayed in binding assays coupled to flow cytometry analysis using similar methods as described in Example 12. Briefly, stably expressing Flag-GLP1R-GFP CHO cells or CHO-parent cells were incubated with primary IgG (100 nM or 1:3 titrations). Secondary antibody incubation involved Alexa 647 conjugated goat-anti-human IgG. Flow cytometry measured the GFP signal against the Alexa 647 signal to identify IgGs that specifically bound to the target (GLP1R).
A general note: In flow cytometry, cells or beads pass a laser one at a time.

Numbering of substitutions follows the chain as printed.

GLP1R, sequence (P43220 24-463): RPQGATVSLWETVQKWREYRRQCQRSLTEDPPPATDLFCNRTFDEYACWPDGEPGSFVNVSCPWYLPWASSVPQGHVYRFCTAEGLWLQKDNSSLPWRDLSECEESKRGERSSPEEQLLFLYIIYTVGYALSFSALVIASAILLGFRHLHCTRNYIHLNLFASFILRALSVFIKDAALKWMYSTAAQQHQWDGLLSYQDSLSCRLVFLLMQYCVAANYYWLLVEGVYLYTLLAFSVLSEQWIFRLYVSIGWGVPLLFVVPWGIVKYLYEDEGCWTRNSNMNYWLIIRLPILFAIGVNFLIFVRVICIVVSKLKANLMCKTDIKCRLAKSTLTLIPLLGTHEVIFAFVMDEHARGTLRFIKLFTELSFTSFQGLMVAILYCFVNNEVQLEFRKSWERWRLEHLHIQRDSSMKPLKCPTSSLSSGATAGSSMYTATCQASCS

B1: GLP1R-241: GLP1R scFv clone reformatted to IgG2; CDR-H3 SEQ ID NO 2299, heavy 2306, light 2313 (antibody)
heavy: MEWSWVFLFFLSVTTGVHSQVQLVQSGAEVKKPGSSVKVSCKASGGTFSDYAISWVRQAPGQGLEWMGGIIPIFGTTNYAQKFQGRVTITADESTSTAYMELSSLRSEDTAVYYCAKHMSMQGSVAGGTFTSDVSSYLEGQAAKEFIAWLVKGGPSFIRADLVGDAFDVWGQGTLVTVSSASASTKGPSVFPLAPCSRSTSESTAALGCLVKDYFPEPVTVSWNSGALTSGVHTFPAVLQSSGLYSLSSVVTVPSSNFGTQTYTCNVDHKPSNTKVDKTVERKCCVECPPCPAPPVAGPSVFLFPPKPKDTLMISRTPEVTCVVVDVSHEDPEVQFNWYVDGVEVHNAKTKPREEQFNSTFRVVSVLTVVHQDWLNGKEYKCKVSNKGLPAPIEKTISKTKGQPREPQVYTLPPSREEMTKNQVSLTCLVKGFYPSDIAVEWESNGQPENNYKTTPPMLDSDGSFFLYSKLTVDKSRWQQGNVFSCSVMHEALHNHYTQKSLSLSPG
light: MSVPTQVLGLLLLWLTDARCQSVLTQPPSVSAAPGQKVTISCSGISSNIGNNYVSWYQQLPGTAPKLLIYDDDQRPSGIPDRFSGSKSGTSATLGITGLQTGDEADYYCGTWDNILSAAVFGGGTKLTVLGQPKAAPSVTLFPPSSEELQANKATLVCLISDFYPGAVTVAWKADSSPVKAGVETTTPSKQSNNKYAASSYLSLTPEQWKSHRSYSCQVTHEGSTVEKTVAPTECS
On to B1, for which, in data set [1], the “Average Tagg 266” value worked out at 65.9 °C, the “Average Tm2” value stood at 75.7 °C and the “Average Tml” value was found to be 68.2 °C. Also, the “binding to CHO-GLP1R” value in data set [2] is “found to bind to CHO-GLP1R”.

B2: GLP1R-244: GLP1R scFv clone reformatted to IgG2; CDR-H3 SEQ ID NO 2302, heavy 2309, light 2316 (antibody)
heavy: MEWSWVFLFFLSVTTGVHSQVQLVQSGAEVKKPGSSVKVSCKASGGTFSSYAISWVRQAPGQGLEWMGGIIPIFGTANYAQKFQGRVTITADESTSTAYMELSSLRSEDTAVYYCARANQHFAATGAGEGQAAKEFIAWLVKGRVEIGYHYYGMDVWGQGTLVTVSSASASTKGPSVFPLAPCSRSTSESTAALGCLVKDYFPEPVTVSWNSGALTSGVHTFPAVLQSSGLYSLSSVVTVPSSNFGTQTYTCNVDHKPSNTKVDKTVERKCCVECPPCPAPPVAGPSVFLFPPKPKDTLMISRTPEVTCVVVDVSHEDPEVQFNWYVDGVEVHNAKTKPREEQFNSTFRVVSVLTVVHQDWLNGKEYKCKVSNKGLPAPIEKTISKTKGQPREPQVYTLPPSREEMTKNQVSLTCLVKGFYPSDIAVEWESNGQPENNYKTTPPMLDSDGSFFLYSKLTVDKSRWQQGNVFSCSVMHEALHNHYTQKSLSLSPG
light: B1 light with I45S, Y53V, D72N, Q74K, P76R, T111S, N114T, I115S, A118V, A119W
For B2, in data set [2], the “binding to CHO-GLP1R” value is on record as “found to bind to CHO-GLP1R”.

B3: GLP1R-242: GLP1R scFv clone reformatted to IgG2; CDR-H3 SEQ ID NO 2300, heavy 2307, light 2314 (antibody)
heavy: MEWSWVFLFFLSVTTGVHSQVQLVQSGAEVKKPGSSVKVSCKASGGTFSSYEISWVRQAPGQGLEWMGGIIPILGIANYAQKFQGRVTITADESTSTAYMELSSLRSEDTAVYYCAKHMSMQADTGTFTSDVSSYLEGQAAKEFIAWLVKGEFSSRADLVGDAFDVWGQGTLVTVSSASASTKGPSVFPLAPCSRSTSESTAALGCLVKDYFPEPVTVSWNSGALTSGVHTFPAVLQSSGLYSLSSVVTVPSSNFGTQTYTCNVDHKPSNTKVDKTVERKCCVECPPCPAPPVAGPSVFLFPPKPKDTLMISRTPEVTCVVVDVSHEDPEVQFNWYVDGVEVHNAKTKPREEQFNSTFRVVSVLTVVHQDWLNGKEYKCKVSNKGLPAPIEKTISKTKGQPREPQVYTLPPSREEMTKNQVSLTCLVKGFYPSDIAVEWESNGQPENNYKTTPPMLDSDGSFFLYSKLTVDKSRWQQGNVFSCSVMHEALHNHYTQKSLSLSPG
light: B1 light with I45S, G50E, Y53D, D71G, D72N, I115T, A119G
In the case of B3, the “binding to CHO-GLP1R” value in data set [2] is “found to bind to CHO-GLP1R”.

B4: GLP1R-243: GLP1R scFv clone reformatted to IgG2; CDR-H3 SEQ ID NO 2301, heavy 2308, light 2315 (antibody)
heavy: MEWSWVFLFFLSVTTGVHSQVQLVQSGAEVKKPGSSVKVSCKASGGTFSTYGINWVRQAPGQGLEWMGGIIPIFGTANYAQKFQGRVTITADESTSTAYMELSSLRSEDTAVYYCARANQHFFGKGDNLAARDFINWLIQTKITDGSNPGYHYYGMDVWGQGTLVTVSSASASTKGPSVFPLAPCSRSTSESTAALGCLVKDYFPEPVTVSWNSGALTSGVHTFPAVLQSSGLYSLSSVVTVPSSNFGTQTYTCNVDHKPSNTKVDKTVERKCCVECPPCPAPPVAGPSVFLFPPKPKDTLMISRTPEVTCVVVDVSHEDPEVQFNWYVDGVEVHNAKTKPREEQFNSTFRVVSVLTVVHQDWLNGKEYKCKVSNKGLPAPIEKTISKTKGQPREPQVYTLPPSREEMTKNQVSLTCLVKGFYPSDIAVEWESNGQPENNYKTTPPMLDSDGSFFLYSKLTVDKSRWQQGNVFSCSVMHEALHNHYTQKSLSLSPG
light: MSVPTQVLGLLLLWLTDARCQSVLTQPPSVSAAPGQKVTISCSGSRSNIGKNYVSWYQQLPGTAPKLLIYENNERPSGIPDRFSGSKSGTSATLGITGLQTGDEADYYCSSYTTSNTQVFGGGTKLTVLGQPKAAPSVTLFPPSSEELQANKATLVCLISDFYPGAVTVAWKADSSPVKAGVETTTPSKQSNNKYAASSYLSLTPEQWKSHRSYSCQVTHEGSTVEKTVAPTECS
Turning to B4, the “binding to CHO-GLP1R” value in data set [2] was “found to bind to CHO-GLP1R”.

B5: GLP1R-240: GLP1R scFv clone reformatted to IgG2; CDR-H3 SEQ ID NO 2298, heavy 2305, light 2312 (antibody)
heavy: MEWSWVFLFFLSVTTGVHSQVQLVQSGAEVKKPGSSVKVSCKASGGTFNNYGISWVRQAPGQGLEWMGGIIPVFGTANYAQKFQGRVTITADESTSTAYMELSSLRSEDTAVYYCARDMYYDFFGLGTFTSDVSSYLEGQAAKEFIAWLVKGVSPEVVPADDAFDIWGQGTLVTVSSASASTKGPSVFPLAPCSRSTSESTAALGCLVKDYFPEPVTVSWNSGALTSGVHTFPAVLQSSGLYSLSSVVTVPSSNFGTQTYTCNVDHKPSNTKVDKTVERKCCVECPPCPAPPVAGPSVFLFPPKPKDTLMISRTPEVTCVVVDVSHEDPEVQFNWYVDGVEVHNAKTKPREEQFNSTFRVVSVLTVVHQDWLNGKEYKCKVSNKGLPAPIEKTISKTKGQPREPQVYTLPPSREEMTKNQVSLTCLVKGFYPSDIAVEWESNGQPENNYKTTPPMLDSDGSFFLYSKLTVDKSRWQQGNVFSCSVMHEALHNHYTQKSLSLSPG
light: MSVPTQVLGLLLLWLTDARCQSVLTQPPSVSAAPGQKVTISCSGSSSSIGNNYVSWYQQLPGTAPKLLIYANNKRPSGIPDRFSGSKSGTSATLGITGLQTGDEADYYCATWSSSPRGWVFGGGTKLTVLGQPKAAPSVTLFPPSSEELQANKATLVCLISDFYPGAVTVAWKADSSPVKAGVETTTPSKQSNNKYAASSYLSLTPEQWKSHRSYSCQVTHEGSTVEKTVAPTECS
On to B5, for which the “binding to CHO-GLP1R” value in data set [2] was “found to bind to CHO-GLP1R”.
